Measurements: patent publication US20210230570
Numbering of substitutions follows the chain as printed. Names may count otherwise.

B1: FIXa-K228N/K247N/N249S/R318Y/T343R/R403E/E410N (protein)
chain 1: YNSGKLEEFVQGNLERECMEEKCSFEEAREVFENTERTTEFWKQYVDGDQCESNPCLNGGSCKDDINSYECWCPFGFEGKNCELDVTCNIKNGRCEQFCKNSADNKVVCSCTEGYRLAENQKSCEPAVPFPCGRVSVSQTSKLTR
chain 2: VVGGEDAKPGQFPWQVVLNGKVDAFCGGSIVNEKWIVTAAHCVETGVNITVVAGEHNIEETEHTEQNRSVIRIIPHHNYNAAINKYNHDIALLELDEPLVLNSYVTPICIADKEYTNIFLKFGSGYVSGWGRVFHKGYSALVLQYLRVPLVDRATCLRSTKFRIYNNMFCAGFHEGGRDSCQGDSGGPHVTEVEGTSFLTGIISWGEECAMKGKYGIYTKVSEYVNWIKNKTKLT
B2: FIXa-Y155F/K247N/N249S/R338E/R403E/E410N (protein)
chain 1: B1 chain 1
chain 2: B1 chain 2 with N48K, Y138R, R158E, R163T
B3: FIXa-Y155F/N260S/R338E/T343R/R403E (protein)
chain 1: B1 chain 1
chain 2: B1 chain 2 with N48K, N67K, S69N, N80S, Y138R, R158E, N230E
B4: FIXa-Y155F/R318Y/R338E/T343R/R403E (protein)
chain 1: B1 chain 1
chain 2: B1 chain 2 with N48K, N67K, S69N, R158E, N230E
B5: FIXa-N260S/R318Y/R338E/T343R/R403E/E410N (protein)
chain 1: B1 chain 1
chain 2: B1 chain 2 with N48K, N67K, S69N, N80S, R158E
B6: FIXa-Y155F/K228N/I251S/R318Y/R338E/R403E/E410N (protein)
chain 1: B1 chain 1
chain 2: B1 chain 2 with N67K, S69N, I71S, R158E, R163T
B7: FIXa-Y155F/K247N/N249S/T343R/R403E (protein)
chain 1: B1 chain 1
chain 2: B1 chain 2 with N48K, Y138R, N230E
B8: FIXa-R318Y/R338E/T343R/R403E (protein)
chain 1: B1 chain 1
chain 2: B1 chain 2 with N48K, N67K, S69N, R158E, N230E
B9: FIXa-Y155F/R338E/T343R/R403E/E410S (protein)
chain 1: B1 chain 1
chain 2: B1 chain 2 with N48K, N67K, S69N, Y138R, R158E, N230S
B10: FIXa-K247N/N249S/R318Y/R338E/T343R/R403E (protein)
chain 1: B1 chain 1
chain 2: B1 chain 2 with N48K, R158E, N230E
B11: FIXa-Y155F/N260S/R318Y/R338E/T343R/R403E/E410N (protein)
chain 1: B1 chain 1
chain 2: B1 chain 2 with N48K, N67K, S69N, N80S, R158E
B12: FIXa-R338E/T343R/R403E (protein)
chain 1: B1 chain 1
chain 2: B1 chain 2 with N48K, N67K, S69N, Y138R, R158E, N230E
B13: FIXa-Y155F/R318Y/T343R/R403E/E410N (protein)
chain 1: B1 chain 1
chain 2: B1 chain 2 with N48K, N67K, S69N
B14: FIXa-R318Y/R338E/T343R/R403E/E410S (protein)
chain 1: B1 chain 1
chain 2: B1 chain 2 with N48K, N67K, S69N, R158E, N230S
B15: FIXa-K228N/K247N/N249S/R318Y/R338E/T343R/R403E/E410N (protein)
chain 1: B1 chain 1
chain 2: B1 chain 2 with R158E
B16: FIXa-Y155F/K247N/N249S/R338E/T343R/R403E/E410N (protein)
chain 1: B1 chain 1
chain 2: B1 chain 2 with N48K, Y138R, R158E
B17: FIXa-Y155F/R318Y/R338E/T343R/R403E/E410N (protein)
chain 1: B1 chain 1
chain 2: B1 chain 2 with N48K, N67K, S69N, R158E
B18: FIXa-K247N/N249S/R338E/T343R/R403E/E410N (protein)
chain 1: B1 chain 1
chain 2: B1 chain 2 with N48K, Y138R, R158E
B19: FIXa-D104N/K106S/R318Y/R338E/T343R/R403E/E410N (protein)
chain 1: B1 chain 1 with D104N, K106S
chain 2: B1 chain 2 with N48K, N67K, S69N, R158E
B20: FIXa-Y155F/R338E/T343R/R403E/E410N (protein)
chain 1: B1 chain 1
chain 2: B1 chain 2 with N48K, N67K, S69N, Y138R, R158E
B21: FIXa-R338E/T343R/R403E/E410N (protein)
chain 1: B1 chain 1
chain 2: B1 chain 2 with N48K, N67K, S69N, Y138R, R158E
B22: FIXa-Y155F/K247N/N249S/R318Y/R338E/T343R/R403E (protein)
chain 1: B1 chain 1
chain 2: B1 chain 2 with N48K, R158E, N230E
B23: FIXa-K228N/I251S/R318Y/R338E/R403E/E410N (protein)
chain 1: B1 chain 1
chain 2: B1 chain 2 with N67K, S69N, I71S, R158E, R163T
B24: FIXa-Y155F/K228N/K247N/N249S/R318Y/R338E/T343R/R403E/E410N (protein)
chain 1: B1 chain 1
chain 2: B1 chain 2 with R158E
B25: FIXa-Y155F/K247N/N249S/R318Y/R338E/T343R/R403E/E410N (protein)
chain 1: B1 chain 1
chain 2: B1 chain 2 with N48K, R158E
B26: FIXa-K247N/N249S/R338E/R403E/E410N (protein)
chain 1: B1 chain 1
chain 2: B1 chain 2 with N48K, Y138R, R158E, R163T
B27: FIXa-Y155F/R318Y/R338E/T343R/E410N (protein)
chain 1: B1 chain 1
chain 2: B1 chain 2 with N48K, N67K, S69N, R158E, E223R
B28: FIXa-Y155F/I251S/R338E/T343R/R403E (protein)
chain 1: B1 chain 1
chain 2: B1 chain 2 with N48K, N67K, S69N, I71S, Y138R, R158E, N230E
B29: FIXa-Y155F/R338E/T343R/R403E (protein)
chain 1: B1 chain 1
chain 2: B1 chain 2 with N48K, N67K, S69N, Y138R, R158E, N230E

Molecular target: Factor X (FX), P00742
Sequence (P00742 whole entry, looked up): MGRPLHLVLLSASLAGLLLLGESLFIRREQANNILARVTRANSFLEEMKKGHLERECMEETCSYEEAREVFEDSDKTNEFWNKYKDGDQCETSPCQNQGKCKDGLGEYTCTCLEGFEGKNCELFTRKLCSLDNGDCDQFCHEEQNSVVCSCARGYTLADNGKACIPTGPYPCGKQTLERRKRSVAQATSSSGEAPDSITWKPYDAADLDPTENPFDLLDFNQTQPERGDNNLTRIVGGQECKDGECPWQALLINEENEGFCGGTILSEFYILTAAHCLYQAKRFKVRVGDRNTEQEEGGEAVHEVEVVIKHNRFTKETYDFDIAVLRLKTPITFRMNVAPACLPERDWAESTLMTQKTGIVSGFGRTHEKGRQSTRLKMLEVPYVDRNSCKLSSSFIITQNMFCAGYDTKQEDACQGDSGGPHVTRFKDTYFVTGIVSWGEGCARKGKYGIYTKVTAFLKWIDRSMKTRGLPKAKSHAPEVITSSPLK

Row | Protein | KM | kcat of FX activation by FIXa in the Xase complex (FVIIIa, PC/PS vesicles, Ca2+) | kcat | also measured
1 | B1 |  |  |  | kcat (s^-1) for activation of FX by FIXa in the Xase complex (FVIIIa, PC/PS vesicles, Ca2+), fluorogenic Spectrafluor FXa read-out: 8.1 s⁻¹; kcat/KM: 7.1e+07 M⁻¹ s⁻¹
2 | B2 | 0.0487 µM | 5 s⁻¹ |  | 
3 | B3 |  |  | 6.4 s⁻¹ | 
4 | B4 | 0.034 µM | 8.2 s⁻¹ |  | 
5 | B5 | 0.0321 µM | 8.9 s⁻¹ |  | 
6 | B6 | 0.0393 µM | 5.3 s⁻¹ |  | 
7 | B7 |  |  | 4.7 s⁻¹ | 
8 | B8 | 0.0443 µM | 6.7 s⁻¹ |  | 
9 | B9 |  |  | 6.8 s⁻¹ | 
10 | B10 |  |  | 9.2 s⁻¹ | 
11 | B11 |  |  | 5.8 s⁻¹ | 
12 | B12 |  |  | 6.9 s⁻¹ | 
13 | B13 | 0.034 µM | 8.8 s⁻¹ |  | 
14 | B14 |  |  | 7.6 s⁻¹ | 
15 | B15 |  |  | 9.9 s⁻¹ | 
16 | B16 |  |  | 9.8 s⁻¹ | 
17 | B17 | 0.0272 µM | 7.8 s⁻¹ |  | 
18 | B18 |  |  | 10.8 s⁻¹ | 
19 | B19 | 0.0266 µM | 5.7 s⁻¹ |  | 
20 | B20 | 0.0259 µM | 5.7 s⁻¹ |  | 
21 | B21 | 0.0347 µM | 9.8 s⁻¹ |  | 
22 | B22 |  |  | 10.6 s⁻¹ | 
23 | B23 | 0.0364 µM | 7.5 s⁻¹ |  | 
24 | B24 |  |  | 9.4 s⁻¹ | 
25 | B25 | 0.0257 µM | 9.7 s⁻¹ |  | 
26 | B26 | 0.025 µM | 4.8 s⁻¹ |  | 
27 | B27 | 0.0256 µM | 9.2 s⁻¹ |  | 
28 | B28 |  |  | 5.9 s⁻¹ | 
29 | B29 |  |  | 5.2 s⁻¹ | 
